Test results: the supplement of paper PMC7877785
± gives the uncertainty stated by the source.

Test: self-splicing fitness, log relative to wild type (ln ratio); higher = more splicing; Tetrahymena group I intron in knt gene, E. coli kanamycin selection, DiMSum; sequences stand for … in CUCUCU…GGAGGGAAAAGUUAUCAGGCAUGCACCUGGUAGCUAGUCUUUAAACCAAUAGAUUGCAUCGGUUUAAAAGGCAAGACCGUCAAAUUGCGGGAAAGGGGUCAACAGCCGUUCAGUACCAAGUCUCAGGGGAAACUUUGAGAUGGCCUUGCAAAGGGUAUGGUAAUAAGCUGACGGACAUGGUCCUAACCACGCAGCCAAGUCCUAAGUCAACAGAUCUUCUGUUGAUAUGGAUGCAGUUCACAGACUAAAUGUCGGUCGGGGAAGAUGUAUUCUUCUCAUAAGAUAUAGUCGGACCUCUCCUUAAUGGGAGCUAGCGGAUGAAGUGAUGCAACACUGGAGCCGCUGGGAACUAAUUUGUAUGCGAAAGUAUAUUGAUUAGUUUUGGAGUACUCGUGGUCG
How it was run: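 Six replicate transformations of E. coli BL21(DE3) with a pET-22b(+) library were grown overnight at 37°C or 30°C. The library randomised all eight P1ex-region intron nucleotides, the intron lying in the knt kanamycin-resistance gene, and plates were LB agar with or without 25 μg/mL kanamycin plus 100 μg/mL carbenicillin, 50 μM IPTG and 0.2% rhamnose. Pooled colonies were amplicon-sequenced on an Illumina HiSeq 2500, and fitness is the DiMSum error-weighted combination of wild-type-normalised replicate fold changes, kanamycin versus none.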

| Sequence | self-splicing fitness (ln) (30 °C) | self-splicing fitness (ln) (37 °C) |
| --- | --- | --- |
| GCUUAGCAAUAUUACGAGUC | -2.18 ± 0.16 | -2.22 ± 0.22 |
| CACGAGCAAUAUUACGCUCA | -2.85 ± 0.45 | -2.42 ± 0.27 |
| AGAAAGCAAUAUUACGCGAG | -1.28 ± 0.11 | -0.453 ± 0.13 |
| CCACAGCAAUAUUACGCGAG | -1.27 ± 0.076 | -0.902 ± 0.083 |
| GGCGAGCAAUAUUACGAACU | -1.3 ± 0.16 | 0.292 ± 0.18 |
| UAGUAGCAAUAUUACGGCGG | -0.668 ± 0.085 | -0.639 ± 0.11 |
| ACCUAGCAAUAUUACGUCUG | -2.84 ± 0.2 | -2.03 ± 0.15 |
| AUUGAGCAAUAUUACGGACA | -2.68 ± 0.31 |  |
| CUUGAGCAAUAUUACGAGUG | -1.72 ± 0.081 | -0.765 ± 0.093 |
| AAACAGCAAUAUUACGGUCG | -1.07 ± 0.059 | -0.526 ± 0.082 |
| CGGUAGCAAUAUUACGGCCC | -0.507 ± 0.2 | 0.668 ± 0.37 |
| GCACAGCAAUAUUACGAGUC | -2.62 ± 0.069 | -1.29 ± 0.065 |
| CACCAGCAAUAUUACGGAAC | -4.01 ± 0.17 | -2.06 ± 0.14 |
| AUAUAGCAAUAUUACGACCA | -1.05 ± 0.32 | 0.391 ± 0.26 |
| GUACAGCAAUAUUACGUACU | -2.77 ± 0.14 | -2.79 ± 0.25 |
| UGAUAGCAAUAUUACGCUGG | -1.15 ± 0.11 | -0.645 ± 0.12 |
| UCUGAGCAAUAUUACGUAUA | -2.36 ± 0.17 | -2.39 ± 0.18 |
| AAAGAGCAAUAUUACGGCAC | -2.72 ± 0.19 | -2.01 ± 0.21 |
| UCUCAGCAAUAUUACGGAUU | -1.73 ± 0.097 | -1.15 ± 0.11 |
| UCGUAGCAAUAUUACGUGGC | -4.04 ± 0.16 | -2.22 ± 0.12 |
| AUGAAGCAAUAUUACGAUUA | -0.416 ± 0.082 | 0.189 ± 0.12 |
| CGCCAGCAAUAUUACGAGCG | -2.66 ± 0.17 | -2.56 ± 0.23 |
| GAAGAGCAAUAUUACGGUCA | -2.72 ± 0.34 | -2.05 ± 0.23 |
| UCGAAGCAAUAUUACGCGCU | -2.18 ± 0.2 | -0.209 ± 0.24 |
| ACACAGCAAUAUUACGAGGC | -3.49 ± 0.17 | -3.41 ± 0.29 |

| Sequence | self-splicing fitness (ln) (30 °C) | self-splicing fitness (ln) (37 °C) |
| --- | --- | --- |
| AUAGAGCAAUAUUACGGAGC |  | -2.05 ± 0.38 |
| UCCCAGCAAUAUUACGAUAU | -3.15 ± 0.18 | -1.74 ± 0.22 |
| CUACAGCAAUAUUACGAGUA | -3.39 ± 0.18 | -1.71 ± 0.12 |
| CGGUAGCAAUAUUACGGAAC |  | -2.37 ± 0.36 |
| CUCGAGCAAUAUUACGGGAU | -3.84 ± 0.36 | -1.93 ± 0.3 |
| UCUAAGCAAUAUUACGGCGA | -0.734 ± 0.086 | -0.474 ± 0.092 |
| GCUGAGCAAUAUUACGCAUG | -2.68 ± 0.13 | -1.92 ± 0.17 |
| AUAGAGCAAUAUUACGGCUG | -1.13 ± 0.13 | 0.795 ± 0.2 |
| GUCUAGCAAUAUUACGGAUU | -1.75 ± 0.089 | -0.0906 ± 0.085 |
| UACCAGCAAUAUUACGCUCC | -1.12 ± 0.18 | -0.501 ± 0.2 |
| ACAAAGCAAUAUUACGCAGU | -3.46 ± 0.2 | -2.78 ± 0.21 |
| UUGGAGCAAUAUUACGGGUG |  | -1.44 ± 0.23 |
| UUGAAGCAAUAUUACGCAUG | -0.179 ± 0.12 | -0.519 ± 0.11 |
| CGCUAGCAAUAUUACGGACU | -0.928 ± 0.09 | -1.08 ± 0.12 |
| AUCCAGCAAUAUUACGUGCA | -1.63 ± 0.091 | -0.196 ± 0.091 |
| ACAAAGCAAUAUUACGGGGA | -2.95 ± 0.14 | -1.05 ± 0.088 |
| GUACAGCAAUAUUACGCGGC | -1.83 ± 0.34 | -2.11 ± 0.36 |
| UCUAAGCAAUAUUACGGCCA | -1.21 ± 0.22 | -1.17 ± 0.21 |
| GGACAGCAAUAUUACGCGGC | -3.12 ± 0.22 | -2.76 ± 0.34 |
| UAAUAGCAAUAUUACGGCAA | -1.99 ± 0.14 | -0.69 ± 0.12 |
| CACCAGCAAUAUUACGCGAA | -4.18 ± 0.21 | -2.04 ± 0.12 |
| AGAUAGCAAUAUUACGUUCG | -0.335 ± 0.1 | 0.123 ± 0.14 |
| UCCCAGCAAUAUUACGAACG | -2.94 ± 0.31 | -2.39 ± 0.29 |
| GACCAGCAAUAUUACGGACG | 0.108 ± 0.075 | 0.272 ± 0.094 |
| UUCCAGCAAUAUUACGCUCC | -2.51 ± 0.24 | -0.988 ± 0.22 |

| Sequence | self-splicing fitness (ln) (30 °C) | self-splicing fitness (ln) (37 °C) |
| --- | --- | --- |
| GUCAAGCAAUAUUACGGUCG | -3.23 ± 0.14 | -1.26 ± 0.13 |
| CGUAAGCAAUAUUACGUGGA | -2.93 ± 0.2 | -2.44 ± 0.24 |
| AGCUAGCAAUAUUACGCAUG | -2.12 ± 0.16 | -1.06 ± 0.12 |
| GCAAAGCAAUAUUACGUAUG | -2.9 ± 0.11 | -2.71 ± 0.2 |
| AUCAAGCAAUAUUACGUUUU | -1.6 ± 0.097 | -0.791 ± 0.12 |
| AACGAGCAAUAUUACGCCGU | -3.6 ± 0.18 | -1.88 ± 0.16 |
| UGACAGCAAUAUUACGUCAU | -3.99 ± 0.27 | -2.48 ± 0.18 |
| GCCCAGCAAUAUUACGAGAA | -0.685 ± 0.28 | -0.511 ± 0.21 |
| CCCCAGCAAUAUUACGGCUA | -3.77 ± 0.16 | -2.34 ± 0.13 |
| GUCGAGCAAUAUUACGUUAC | -3.38 ± 0.22 | -1.49 ± 0.27 |
| UUUUAGCAAUAUUACGGUAA | -1.94 ± 0.2 | -0.884 ± 0.14 |
| CCUAAGCAAUAUUACGUCUC | -3.01 ± 0.11 | -3.11 ± 0.19 |
| ACCGAGCAAUAUUACGCACC | -2.84 ± 0.22 | -1.08 ± 0.21 |
| GGAGAGCAAUAUUACGAAGC | -3.17 ± 0.37 |  |
| ACUGAGCAAUAUUACGCUUC | -3.57 ± 0.24 | -3.1 ± 0.28 |
| AUACAGCAAUAUUACGCUCU | 0.359 ± 0.13 | 0.358 ± 0.16 |
| CCCCAGCAAUAUUACGCAGG | -3.34 ± 0.12 | -2.52 ± 0.16 |
| GAGGAGCAAUAUUACGACGU | -1.37 ± 0.13 | -0.0936 ± 0.15 |
| AUUCAGCAAUAUUACGCUUA | -0.623 ± 0.078 | -0.332 ± 0.091 |
| UGGCAGCAAUAUUACGAACC | -1.66 ± 0.15 | -0.775 ± 0.2 |
| GCCGAGCAAUAUUACGCUGC | -4.22 ± 0.36 | -2.81 ± 0.25 |
| AGCGAGCAAUAUUACGUUGA |  | -2.11 ± 0.16 |
| GAUUAGCAAUAUUACGCACU | -0.846 ± 0.15 | 0.415 ± 0.18 |
| CGUAAGCAAUAUUACGAACG | -3.04 ± 0.18 | -1.76 ± 0.22 |
| GGAUAGCAAUAUUACGCAUU | -3.51 ± 0.32 | -1.65 ± 0.22 |

| Sequence | self-splicing fitness (ln) (30 °C) | self-splicing fitness (ln) (37 °C) |
| --- | --- | --- |
| AGCCAGCAAUAUUACGUUAG | -3.07 ± 0.14 | -2.28 ± 0.16 |
| CCGAAGCAAUAUUACGUCGG | -3.35 ± 0.2 | -2.59 ± 0.31 |
| AAGGAGCAAUAUUACGCGCA | -1.82 ± 0.18 | -0.97 ± 0.2 |
| GGUAAGCAAUAUUACGUGAC | -1.4 ± 0.076 | -1.66 ± 0.12 |
| AUCAAGCAAUAUUACGAGGA | -2.51 ± 0.19 | -2.65 ± 0.26 |
| UAUAAGCAAUAUUACGGUGU | -2.97 ± 0.26 | -1.34 ± 0.18 |
| CGGCAGCAAUAUUACGGCGC | -2.64 ± 0.27 | -2.53 ± 0.24 |
| UUGAAGCAAUAUUACGUGAC | -3.1 ± 0.3 | -1.29 ± 0.24 |
| UUGCAGCAAUAUUACGGUAC | -3.25 ± 0.33 | -0.374 ± 0.18 |
| CCCGAGCAAUAUUACGUAAU | -4.75 ± 0.45 | -2.63 ± 0.32 |
| UUCGAGCAAUAUUACGAUUC | -3.5 ± 0.44 |  |
| CUAGAGCAAUAUUACGAAGU | -2.56 ± 0.26 |  |
| ACUCAGCAAUAUUACGAAUG | -1.17 ± 0.11 | -0.992 ± 0.15 |
| CGCUAGCAAUAUUACGGGAC |  | -2.63 ± 0.22 |
| GGCAAGCAAUAUUACGUCCA | -1.83 ± 0.22 | -0.175 ± 0.18 |
| CCCAAGCAAUAUUACGUUAC | -4.13 ± 0.15 | -2.37 ± 0.13 |
| UCCAAGCAAUAUUACGCGUA | -0.121 ± 0.056 | 0.286 ± 0.06 |
| ACGAAGCAAUAUUACGUCAU | -2.99 ± 0.12 | -2.81 ± 0.14 |
| CAGAAGCAAUAUUACGGGUG | -0.824 ± 0.064 | -0.429 ± 0.08 |
| AUGGAGCAAUAUUACGCUUA | -2.53 ± 0.33 | -0.194 ± 0.21 |
| GGAGAGCAAUAUUACGGGCC | -2.35 ± 0.33 |  |
| ACUUAGCAAUAUUACGCUCG | -0.969 ± 0.1 | -0.233 ± 0.16 |
| GGGAAGCAAUAUUACGUGUC | -3.63 ± 0.24 | -2.28 ± 0.2 |
